Data from patent US8603949B2, “Libraries of optimized cytochrome P450 enzymes and the optimized P450 enzymes” (California Institute of Technology, priority 2003, dated 2013).
“Also recorded” adds a separate entry of the source.

B1: Chimera 191-335: CYP102A1 heme domain with residues 191-335 from CYP102A2 (protein)
chain: TIKEMPQPKTFGELKNLPLLNTDKPVQALMKIADELGEIFKFEAPGRVTRYLSSQRLIKEACDESRFDKNLSQALKFVRDFAGDGLATSWTHEKNWKKAHNILLPSFSQQAMKGYHAMMVDIAVQLVQKWERLNADEHIEVPEDMTRLTLDTIGLCGFNYRFNSFYRDQPHPFITSMVRALDEAMNKLQRLDVQDKLMVRTKRQFRYDIQTMFSLVDSIIAERRANGDQDEKDLLARMLNVEDPETGEKLDDENIRFQIITFLIAGHETTSGLLSFATYFLLKHPDKLKKAYEEVDRVLTDAAPTYKQVLELTYIRMILNESLRLWPTAPAFSLYPKEDTVLGGEYPLEKGDELMVLIPQLHRDKTIWGDDVEEFRPERFENPSAIPQHAFKPFGNGQRACIGQQFALHEATLVLGMMLKHFDFEDHTNYELDIKETLTLKPEGFVVKAKSKKIPLGGIPSPST
modifications: Chimeric Cytochrome P450 heme group sequence from Bacillus megaterium and Bacillus subtilis
notes: CYP102A1 heme domain with residues 191-335 from CYP102A2
B2: CYP102A1: parent P450 heme domain from Bacillus megaterium, with the F87A mutation (protein, listed as Bacillus megaterium)
chain: TIKEMPQPKTFGELKNLPLLNTDKPVQALMKIADELGEIFKFEAPGRVTRYLSSQRLIKEACDESRFDKNLSQALKFVRDFAGDGLATSWTHEKNWKKAHNILLPSFSQQAMKGYHAMMVDIAVQLVQKWERLNADEHIEVPEDMTRLTLDTIGLCGFNYRFNSFYRDQPHPFITSMVRALDEAMNKLQRANPDDPAYDENKRQFQEDIKVMNDLVDKIIADRKASGEQSDDLLTHMLNGKDPETGEPLDDENIRYQIITFLIAGHETTSGLLSFALYFLVKNPHVLQKAAEEAARVLVDPVPSYKQVKQLKYVGMVLNEALRLWPTAPAFSLYAKEDTVLGGEYPLEKGDELMVLIPQLHRDKTIWGDDVEEFRPERFENPSAIPQHAFKPFGNGQRACIGQQFALHEATLVLGMMLKHFDFEDHTNYELDIKETLTLKPEGFVVKAKSKKIPLGGIPSPST
B3: Chimera 43-135: CYP102A1 heme domain with residues 43-135 from CYP102A2 (protein)
chain: TIKEMPQPKTFGELKNLPLLNTDKPVQALMKIADELGEIFKFHTPAGTTIVVSGHELVKEVCDEERFDKSIEGALEKVRAFSGDGLATSWTHEPNWRKAHNILMPTFSQRAMKDYHEKMVDIAVQLIQKWARLNPDEHIEVPEDMTRLTLDTIGLCGFNYRFNSFYRDQPHPFITSMVRALDEAMNKLQRANPDDPAYDENKRQFQEDIKVMNDLVDKIIADRKASGEQSDDLLTHMLNGKDPETGEPLDDENIRYQIITFLIAGHETTSGLLSFALYFLVKNPHVLQKAAEEAARVLVDPVPSYKQVKQLKYVGMVLNEALRLWPTAPAFSLYAKEDTVLGGEYPLEKGDELMVLIPQLHRDKTIWGDDVEEFRPERFENPSAIPQHAFKPFGNGQRACIGQQFALHEATLVLGMMLKHFDFEDHTNYELDIKETLTLKPEGFVVKAKSKKIPLGGIPSPST
modifications: Chimeric Cytochrome P450 heme group sequence from Bacillus megaterium and Bacillus subtilis
notes: CYP102A1 heme domain with residues 43-135 from CYP102A2
B4: Chimera 169-197: CYP102A1 heme domain with residues 169-197 from CYP102A2 (protein)
chain: TIKEMPQPKTFGELKNLPLLNTDKPVQALMKIADELGEIFKFEAPGRVTRYLSSQRLIKEACDESRFDKNLSQALKFVRDFAGDGLATSWTHEKNWKKAHNILLPSFSQQAMKGYHAMMVDIAVQLVQKWERLNADEHIEVPEDMTRLTLDTIGLCGFNYRFNSFYRDTPHPFINSMVRALDEAMHQMQRLDVQDKLYDENKRQFQEDIKVMNDLVDKIIADRKASGEQSDDLLTHMLNGKDPETGEPLDDENIRYQIITFLIAGHETTSGLLSFALYFLVKNPHVLQKAAEEAARVLVDPVPSYKQVKQLKYVGMVLNEALRLWPTAPAFSLYAKEDTVLGGEYPLEKGDELMVLIPQLHRDKTIWGDDVEEFRPERFENPSAIPQHAFKPFGNGQRACIGQQFALHEATLVLGMMLKHFDFEDHTNYELDIKETLTLKPEGFVVKAKSKKIPLGGIPSPST
modifications: Chimeric Cytochrome P450 heme group sequence from Bacillus megaterium and Bacillus subtilis
notes: CYP102A1 heme domain with residues 169-197 from CYP102A2
B5: Chimera 165-256: CYP102A1 heme domain with residues 165-256 from CYP102A2 (protein)
chain: TIKEMPQPKTFGELKNLPLLNTDKPVQALMKIADELGEIFKFEAPGRVTRYLSSQRLIKEACDESRFDKNLSQALKFVRDFAGDGLATSWTHEKNWKKAHNILLPSFSQQAMKGYHAMMVDIAVQLVQKWERLNADEHIEVPEDMTRLTLDTIGLCGFNYRFNSYYRETPHPFINSMVRALDEAMHQMQRLDVQDKLMVRTKRQFRYDIQTMFSLVDSIIAERRANGDQDEKDLLARMLNVEDPETGEKLDDENIRFQIITFLIAGHETTSGLLSFALYFLVKNPHVLQKAAEEAARVLVDPVPSYKQVKQLKYVGMVLNEALRLWPTAPAFSLYAKEDTVLGGEYPLEKGDELMVLIPQLHRDKTIWGDDVEEFRPERFENPSAIPQHAFKPFGNGQRACIGQQFALHEATLVLGMMLKHFDFEDHTNYELDIKETLTLKPEGFVVKAKSKKIPLGGIPSPST
modifications: Chimeric Cytochrome P450 heme group sequence from Bacillus megaterium and Bacillus subtilis
notes: CYP102A1 heme domain with residues 165-256 from CYP102A2

How the values were obtained:
[1] = Peroxidase activity with ABTS and H2O2; assay type: biochemical; details: for Peroxidase activity: 10 mM ABTS, 20 mM H2O2, pH 5.0, activities <0.2 not detectable (N.D.)
Text: P450s can reduce peroxide to water (and a proton) using a mechanism similar to that of peroxidases, although the intrinsic rate for P450s is many orders of magnitude slower. (Mansuy, D., Comp Biochem Physiol C Pharmacol Toxicol Endocrinol 121, 5-14 (1998)). It has been proposed that the earliest P450 function may have been as a peroxidase. (Gotoh, O., Cytochrome P450, 2nd Edition, pp. 255-272 (1993)). To investigate how recombination affects P450 peroxidase activity, the colorimetric substrate 2,2′-azino-bis(3-ethylbenzothiazoline-6-sulfonate) (ABTS) was used to monitor this reaction (Childs et al., Biochem J 145,93-103 (1975)).
This example provides an example of how one can measure peroxidase activity. Initial rates of peroxidase activity were measured by monitoring the accumulation of the radical cation of ABTS at 414 nm (Childs et al., Biochem J., 145:93-103 (1975)). Enzyme (1 μM) was mixed with 10 mM ABTS in 200 mM phosphate buffer (pH 5.0) in a cuvette at room temperature. Samples were zeroed and reactions were initiated with the addition of H2O2 to a concentration of 20 mM. The absorbance at 414 nm was monitored for 5 minutes. Rates were determined from the steepest portion of the time course. An extinction coefficient of […] for ABTS was used.

[2] = Peroxygenase activity on allyloxy-benzene (4-AAP assay); assay type: biochemical; details: 50 mM substrate
Procedure: (§1) The chimeras were assayed for hydroxylation of p-nitrophenoxydodecanoic acid (12-pNCA), a fatty acid analog that is hydroxylated by CYP102A1 and CYP102A2 to yield p-nitrophenolate (Schwaneberg et al., Anal Biochem 269,359-366 (1999)). […] When hydroxylation rates for the parent CYP102 enzymes were monitored using the maximum soluble concentrations of these substrates, activity could only be detected on 2-phenoxy-ethanol.
(§2) Rates on 2-phenoxy-ethanol and allyloxy-benzene were determined using 2 μM enzyme, 20 mM H2O2, 1% DMSO, and 1% acetone in 100 mM N-[2-hydroxyethyl]piperazine-N′-[3-propanesulfonic acid] (Epps) (pH 8.2) at room temperature. Substrate concentrations for 2-phenoxy-ethanol (100 mM) and allyloxy benzene (50 mM) maintained saturation. Reactions were initiated by the addition of H2O2 and quenched at appropriate times using an equal volume of a solution containing 4M urea and 100 mM NaOH. 120 μl of 0.6% 4-AAP was added, followed by mixing and addition of 120 μl of 0.6% potassium persulfate. Color was allowed to develop for 20 minutes before absorbance was read at 500 nm. Rates were determined from the linear region of the time course. The major products were determined by GC/MS to be the hemiacetal, which decomposes to phenol. The extinction coefficient for the 4-AAP/phenol complex was determined to be 4,800 M^−1cm^−1. The results can be seen in FIG. 4.

[3] = Thermostability (loss of Soret band at increasing temperatures); assay type: physicochemical; details: cell extracts heated 10 minutes
Procedure: Thermostability was assayed by monitoring the loss of the Soret band at increasing temperatures. […] However, thermostability may be important for retention of catalytic activity: the two chimeras that lacked peroxygenase activity were also the least thermostable.
Cell extracts were heated in a thermocycler for 10 minutes at various temperatures, followed by cooling to 4° C. Extracts were centrifuged for 5 minutes at 3500×g to remove any precipitates. Carbon monoxide reduced difference spectroscopy was used to quantitate the amount of P450. The reduction of the carbon monoxide peak was monitored over a range of temperatures.

[4] = Peroxygenase substrate activity profile; assay type: biochemical; details: 20 mM H2O2
Procedure: as §1
Chimeras were assayed for peroxygenase activity on 12-pNCA, 2-phenoxy -ethanol and allyloxy-benzene. […] Rates are reported in nmol product/nmol P450/minute. […] Those with no activity include 65-256 and 277-365. Those with new activity include 165-256, 191-335, and 43-135.
(§3) This Example provides one method by which peroxygenase activity of a P450 enzyme may be characterized. First order rates for p-nitrophenolate accumulation were determined using 1 μM enzyme, 20 mM H2O2, 250 μM 12-pNCA and 0.5% dimethyl sulfoxide (DMSO) in 100 mM Tris-HCl (pH 8.2) at room temperature. Enzyme, substrate, buffer and DMSO were combined in a cuvette and zeroed at 410 nm. Reaction mixtures were incubated for 4 minutes and initiated by the addition of H2O2 to a final concentration of 20 mM. Initial rates were determined by monitoring the accumulation of p-nitrophenolate at 410 nm, and data from the first six seconds were used to determine initial rates. […] The extinction coefficient of p-nitrophenolate is 13,200 M^−1cm^−1 (Schwaneberg et al., Anal Biochem 269:359-366 (1999)).
as §2

[5] = Peroxygenase activity on 2-phenoxy-ethanol (4-AAP assay); assay type: biochemical; details: 100 mM substrate
Procedure: as §1, §2

[6] = Peroxygenase activity, hydroxylation of 12-pNCA; assay type: biochemical; details: 250 μM 12-pNCA
Procedure: as §1, §3

[7] = Li et al. 2001; read-out: KM for 12-pNCA; cited from earlier work

Molecule | peroxidase activity relative to parents ([1]; ABTS) | peroxygenase activity on allyloxy-benzene [2] | Tm [3] [°C] | substrate activity profile relative to parents [4] | peroxygenase activity on 2-phenoxy-ethanol [5] | peroxygenase activity on 12-pNCA [6] | Peroxidase activity [1] | Km [7] [µM] | fold increase of peroxidase activity over the most active parent ([1]; ABTS)
B1 | no detectable peroxidase activity | detectable activity | 40 | new activity; also recorded: gained novel activity | detectable activity | not |  |  | 
B2 | low, but detectable peroxidase activity |  | 55 |  |  |  | 2.6 nmol product/nmol P450/min | 8.1 | 
B3 |  | highest rates; also recorded: detectable activity | 53 | new activity; also recorded: gained novel activity | detectable activity | not | 6.8 nmol product/nmol P450/min |  | 
B4 | highest peroxidase and peroxygenase rates; also recorded: significantly higher peroxidase activities |  | 52 | parent-like profiles |  | most active; also recorded: significant increase | 100.3 nmol product/nmol P450/min |  | approximately 40 fold
B5 | significantly higher peroxidase activities | highest rates | 48 | broadest substrate specificity; also recorded: new activity; also recorded: active on all three substrates; also recorded: gained novel activity |  |  | 16.1 nmol product/nmol P450/min |  | 
